{"source": "the Immune Epitope Database (IEDB)", "key": {"HLA-A*32:07": {"target": "HLA-A*32:07", "assay": "IEDB peptide-MHC binding, purified MHC/competitive/fluorescence; filed as Kd, often an IC50 or EC50 that approximates it; ≥ and ≤ were set here for values at or beyond the usual limits of such assays", "conditions": "source organism: Staphylococcus aureus subsp. aureus N315"}, "HLA-B*45:06": {"target": "HLA-B*45:06", "assay": "IEDB peptide-MHC binding, purified MHC/competitive/fluorescence; filed as Kd, often an IC50 or EC50 that approximates it; ≥ and ≤ were set here for values at or beyond the usual limits of such assays"}, "HLA-A*32:15": {"target": "HLA-A*32:15", "assay": "IEDB peptide-MHC binding, purified MHC/competitive/fluorescence; filed as Kd, often an IC50 or EC50 that approximates it; ≥ and ≤ were set here for values at or beyond the usual limits of such assays", "conditions": "source organism: Staphylococcus aureus subsp. aureus N315"}, "HLA-B*15:42": {"target": "HLA-B*15:42", "assay": "IEDB peptide-MHC binding, purified MHC/competitive/fluorescence; filed as Kd, often an IC50 or EC50 that approximates it; ≥ and ≤ were set here for values at or beyond the usual limits of such assays"}, "HLA-A*29:02": {"target": "HLA-A*29:02", "assay": "IEDB peptide-MHC binding, purified MHC/competitive/fluorescence; filed as Kd, often an IC50 or EC50 that approximates it; ≥ and ≤ were set here for values at or beyond the usual limits of such assays", "conditions": "source organism: Staphylococcus aureus subsp. aureus N315"}, "HLA-A*01:01": {"target": "HLA-A*01:01", "assay": "IEDB peptide-MHC binding, purified MHC/competitive/fluorescence; filed as Kd, often an IC50 or EC50 that approximates it; ≥ and ≤ were set here for values at or beyond the usual limits of such assays", "conditions": "source organism: Staphylococcus aureus subsp. aureus N315"}, "HLA-A*24:02 [1]": {"target": "HLA-A*24:02", "assay": "IEDB peptide-MHC binding, purified MHC/competitive/fluorescence; filed as Kd, often an IC50 or EC50 that approximates it; ≥ and ≤ were set here for values at or beyond the usual limits of such assays", "conditions": "source organism: Rickettsia felis URRWXCal2"}, "HLA-C*15:02": {"target": "HLA-C*15:02", "assay": "IEDB peptide-MHC binding, purified MHC/direct/fluorescence; filed as Kd, often an IC50 or EC50 that approximates it; ≥ and ≤ were set here for values at or beyond the usual limits of such assays"}, "HLA-C*06:02": {"target": "HLA-C*06:02", "assay": "IEDB peptide-MHC binding, purified MHC/direct/fluorescence; filed as Kd, often an IC50 or EC50 that approximates it; ≥ and ≤ were set here for values at or beyond the usual limits of such assays"}, "HLA-C*14:02 [2]": {"target": "HLA-C*14:02", "assay": "IEDB peptide-MHC binding, purified MHC/direct/fluorescence; filed as Kd, often an IC50 or EC50 that approximates it; ≥ and ≤ were set here for values at or beyond the usual limits of such assays", "conditions": "source organism: Rickettsia felis URRWXCal2"}, "HLA-B*40:02": {"target": "HLA-B*40:02", "assay": "IEDB peptide-MHC binding, cellular MHC/competitive/fluorescence; ≥ and ≤ were set here for values at or beyond the usual limits of such assays", "conditions": "source organism: Homo sapiens"}, "HLA-A*24:02 [3]": {"target": "HLA-A*24:02", "assay": "IEDB peptide-MHC binding, cellular MHC/competitive/fluorescence; ≥ and ≤ were set here for values at or beyond the usual limits of such assays", "conditions": "source organism: Human herpesvirus 5 strain AD169"}, "HLA-B*83:01": {"target": "HLA-B*83:01", "assay": "IEDB peptide-MHC binding, purified MHC/competitive/fluorescence; filed as Kd, often an IC50 or EC50 that approximates it; ≥ and ≤ were set here for values at or beyond the usual limits of such assays"}, "HLA-A*03:19": {"target": "HLA-A*03:19", "assay": "IEDB peptide-MHC binding, purified MHC/competitive/fluorescence; filed as Kd, often an IC50 or EC50 that approximates it; ≥ and ≤ were set here for values at or beyond the usual limits of such assays", "conditions": "source organism: human gammaherpesvirus 4"}, "HLA-C*14:02 [4]": {"target": "HLA-C*14:02", "assay": "IEDB peptide-MHC binding, purified MHC/competitive/fluorescence; filed as Kd, often an IC50 or EC50 that approximates it; ≥ and ≤ were set here for values at or beyond the usual limits of such assays"}, "HLA-C*04:01": {"target": "HLA-C*04:01", "assay": "IEDB peptide-MHC binding, purified MHC/competitive/fluorescence; filed as Kd, often an IC50 or EC50 that approximates it; ≥ and ≤ were set here for values at or beyond the usual limits of such assays", "conditions": "source organism: Giardia lamblia ATCC 50803"}, "HLA-B*27:20": {"target": "HLA-B*27:20", "assay": "IEDB peptide-MHC binding, purified MHC/competitive/fluorescence; filed as Kd, often an IC50 or EC50 that approximates it; ≥ and ≤ were set here for values at or beyond the usual limits of such assays", "conditions": "source organism: Giardia lamblia ATCC 50803"}, "HLA-B*46:01": {"target": "HLA-B*46:01", "assay": "IEDB peptide-MHC binding, purified MHC/competitive/fluorescence; filed as Kd, often an IC50 or EC50 that approximates it; ≥ and ≤ were set here for values at or beyond the usual limits of such assays", "conditions": "source organism: Giardia lamblia ATCC 50803"}, "HLA-C*05:01": {"target": "HLA-C*05:01", "assay": "IEDB peptide-MHC binding, purified MHC/direct/fluorescence; filed as Kd, often an IC50 or EC50 that approximates it; ≥ and ≤ were set here for values at or beyond the usual limits of such assays", "conditions": "source organism: Giardia lamblia ATCC 50803"}, "HLA-C*12:03": {"target": "HLA-C*12:03", "assay": "IEDB peptide-MHC binding, purified MHC/direct/fluorescence; filed as Kd, often an IC50 or EC50 that approximates it; ≥ and ≤ were set here for values at or beyond the usual limits of such assays", "conditions": "source organism: Giardia lamblia ATCC 50803"}, "HLA-C*08:02": {"target": "HLA-C*08:02", "assay": "IEDB peptide-MHC binding, purified MHC/direct/fluorescence; filed as Kd, often an IC50 or EC50 that approximates it; ≥ and ≤ were set here for values at or beyond the usual limits of such assays", "conditions": "source organism: Giardia lamblia ATCC 50803"}, "HLA-C*03:03": {"target": "HLA-C*03:03", "assay": "IEDB peptide-MHC binding, purified MHC/direct/fluorescence; filed as Kd, often an IC50 or EC50 that approximates it; ≥ and ≤ were set here for values at or beyond the usual limits of such assays", "conditions": "source organism: Giardia lamblia ATCC 50803"}, "[5]": {"conditions": "source organism: Staphylococcus aureus subsp. aureus N315"}, "[6]": {"conditions": "source organism: Rickettsia felis URRWXCal2"}, "[7]": {"conditions": "source organism: human gammaherpesvirus 4"}, "[8]": {"conditions": "source organism: Giardia lamblia ATCC 50803"}}}
{"sequence": "MVIKWIHER", "values": [{"measurement": "Kd", "setting": "HLA-A*32:07", "value": 203, "unit": "nM"}, {"measurement": "Kd", "setting": "HLA-B*45:06; [5]", "value": "≥ 5000", "unit": "nM"}, {"measurement": "Kd", "setting": "HLA-A*32:15", "value": 52.5, "unit": "nM"}, {"measurement": "Kd", "setting": "HLA-B*15:42; [5]", "value": "≥ 5000", "unit": "nM"}, {"measurement": "Kd", "setting": "HLA-A*29:02", "value": 548, "unit": "nM"}, {"measurement": "Kd", "setting": "HLA-A*01:01", "value": 17000, "unit": "nM"}]}
{"sequence": "RWLPLVSLF", "values": [{"measurement": "Kd", "setting": "HLA-A*24:02 [1]", "value": "≤ 0.1", "unit": "nM"}, {"measurement": "Kd", "setting": "HLA-C*15:02; [6]", "value": "≥ 20000", "unit": "nM"}, {"measurement": "Kd", "setting": "HLA-C*06:02; [6]", "value": "≥ 20000", "unit": "nM"}, {"measurement": "Kd", "setting": "HLA-C*14:02 [2]", "value": 399, "unit": "nM"}]}
{"sequence": "SSYGNIRAV", "values": [{"measurement": "IC50", "setting": "HLA-B*40:02", "value": 1800, "unit": "nM"}]}
{"sequence": "VYALPLKML", "values": [{"measurement": "IC50", "setting": "HLA-A*24:02 [3]", "value": 7500, "unit": "nM"}]}
{"sequence": "WPTPKTHPV", "values": [{"measurement": "Kd", "setting": "HLA-B*45:06; [7]", "value": "≥ 5000", "unit": "nM"}, {"measurement": "Kd", "setting": "HLA-B*15:42; [7]", "value": "≥ 5000", "unit": "nM"}, {"measurement": "Kd", "setting": "HLA-B*83:01; [7]", "value": 3470, "unit": "nM"}, {"measurement": "Kd", "setting": "HLA-A*03:19", "value": 1080, "unit": "nM"}, {"measurement": "Kd", "setting": "HLA-C*14:02 [4]; [7]", "value": 142, "unit": "nM"}]}
{"sequence": "YMRERFEPM", "values": [{"measurement": "Kd", "setting": "HLA-B*45:06; [8]", "value": "≥ 5000", "unit": "nM"}, {"measurement": "Kd", "setting": "HLA-C*04:01", "value": "≥ 5000", "unit": "nM"}, {"measurement": "Kd", "setting": "HLA-B*15:42; [8]", "value": "≥ 5000", "unit": "nM"}, {"measurement": "Kd", "setting": "HLA-B*83:01; [8]", "value": "≥ 5000", "unit": "nM"}, {"measurement": "Kd", "setting": "HLA-B*27:20", "value": 0.5, "unit": "nM"}, {"measurement": "Kd", "setting": "HLA-B*46:01", "value": 21.8, "unit": "nM"}, {"measurement": "Kd", "setting": "HLA-C*14:02 [4]; [8]", "value": 0.3, "unit": "nM"}, {"measurement": "Kd", "setting": "HLA-C*05:01", "value": "≥ 20000", "unit": "nM"}, {"measurement": "Kd", "setting": "HLA-C*12:03", "value": 38, "unit": "nM"}, {"measurement": "Kd", "setting": "HLA-C*08:02", "value": "≥ 20000", "unit": "nM"}, {"measurement": "Kd", "setting": "HLA-C*03:03", "value": 452, "unit": "nM"}, {"measurement": "Kd", "setting": "HLA-C*15:02; [8]", "value": 70, "unit": "nM"}, {"measurement": "Kd", "setting": "HLA-C*06:02; [8]", "value": 22, "unit": "nM"}]}
